Literature values in PMC8125740.

Target: Amyloid beta (Homo sapiens) (UniProt P05067)

In the case of “Cellular prion protein (from UniProt P04156)”, the Kd is given as 1 nM.
